The source of these data is PMC3295232 (Journal of the American Chemical Society, 2012).

Series [1] has as its system yeast pyruvate decarboxylase (YPDC). As to the kind of experiment: YPDC assay coupled to alcohol dehydrogenase/NADH. It counts as biochemical, Saccharomyces cerevisiae. The note with it: pyruvate as substrate; for kcat / subunit: per subunit; for kcat / subunit / S0.5: pH 6.0, 30 °C.
For series [2] the test system is unchanged. The note with it: cited from earlier work; for S0.5: pyruvate as substrate.

Where two headings read alike, the source gives them in different places. Marks after values point to notes of the source that are not given here.

B1: E51D: variant at the indicated position of YPDC (protein, UniProt P06169 2-563, looked up, variant E51D)
Pyruvate decarboxylase …: SEITLGKYLFERLKQVNVNTVFGLPGDFNLSLLDKIYEVEGMRWAGNANDLNAAYAADGYARIKGMSCIITTFGVGELSALNGIAGSYAEHVGVLHVVGVPSISAQAKQLLLHHTLGNGDFTVFHRMSANISETTAMITDIATAPAEIDRCIRTTYVTQRPVYLGLPANLVDLNVPAKLLQTPIDMSLKPNDAESEKEVIDTILALVKDAKNPVILADACCSRHDVKAETKKLIDLTQFPAFVTPMGKGSIDEQHPRYGGVYVGTLSKPEVKEAVESADLILSVGALLSDFNTGSFSYSYKTKNIVEFHSDHMKIRNATFPGVQMKFVLQKLLTTIADAAKGYKPVAVPARTPANAAVPASTPLKQEWMWNQLGNFLQEGDVVIAETGTSAFGINQTTFPNNTYGISQVLWGSIGFTTGATLGAAFAAEEIDPKKRVILFIGDGSLQLTVQEISTMIRWGLKPYLFVLNNDGYTIEKLIHGPKAQYNEIQGWDHLSLLPTFGAKDYETHRVATTGEWDKLTQDKSFNDNSKIRMIEIMLPVFDAPQNLVEQAKLTAATNAKQ
As to B1, in series [1], the kcat / subunit is 0.049 s⁻¹, the “decrease in kcat as compared to YPDC” value turned out to be 1000 fold and the S0.5 came out at 23.1 ± 1.3 mM.

B2: E51N: variant at the indicated position of YPDC (protein, UniProt P06169 2-563, looked up, variant E51N)
Pyruvate decarboxylase …: SEITLGKYLFERLKQVNVNTVFGLPGDFNLSLLDKIYEVEGMRWAGNANNLNAAYAADGYARIKGMSCIITTFGVGELSALNGIAGSYAEHVGVLHVVGVPSISAQAKQLLLHHTLGNGDFTVFHRMSANISETTAMITDIATAPAEIDRCIRTTYVTQRPVYLGLPANLVDLNVPAKLLQTPIDMSLKPNDAESEKEVIDTILALVKDAKNPVILADACCSRHDVKAETKKLIDLTQFPAFVTPMGKGSIDEQHPRYGGVYVGTLSKPEVKEAVESADLILSVGALLSDFNTGSFSYSYKTKNIVEFHSDHMKIRNATFPGVQMKFVLQKLLTTIADAAKGYKPVAVPARTPANAAVPASTPLKQEWMWNQLGNFLQEGDVVIAETGTSAFGINQTTFPNNTYGISQVLWGSIGFTTGATLGAAFAAEEIDPKKRVILFIGDGSLQLTVQEISTMIRWGLKPYLFVLNNDGYTIEKLIHGPKAQYNEIQGWDHLSLLPTFGAKDYETHRVATTGEWDKLTQDKSFNDNSKIRMIEIMLPVFDAPQNLVEQAKLTAATNAKQ
Consider B2, for which, in series [1], the kcat / subunit stood at 0.0024 s⁻¹, the “decrease in kcat as compared to YPDC” value is reported as 10,000 fold and the S0.5 is reported as 31.5 ± 12 mM.

B3: E51A: variant at the indicated position of YPDC (protein, UniProt P06169 2-563, looked up, variant E51A)
Pyruvate decarboxylase …: SEITLGKYLFERLKQVNVNTVFGLPGDFNLSLLDKIYEVEGMRWAGNANALNAAYAADGYARIKGMSCIITTFGVGELSALNGIAGSYAEHVGVLHVVGVPSISAQAKQLLLHHTLGNGDFTVFHRMSANISETTAMITDIATAPAEIDRCIRTTYVTQRPVYLGLPANLVDLNVPAKLLQTPIDMSLKPNDAESEKEVIDTILALVKDAKNPVILADACCSRHDVKAETKKLIDLTQFPAFVTPMGKGSIDEQHPRYGGVYVGTLSKPEVKEAVESADLILSVGALLSDFNTGSFSYSYKTKNIVEFHSDHMKIRNATFPGVQMKFVLQKLLTTIADAAKGYKPVAVPARTPANAAVPASTPLKQEWMWNQLGNFLQEGDVVIAETGTSAFGINQTTFPNNTYGISQVLWGSIGFTTGATLGAAFAAEEIDPKKRVILFIGDGSLQLTVQEISTMIRWGLKPYLFVLNNDGYTIEKLIHGPKAQYNEIQGWDHLSLLPTFGAKDYETHRVATTGEWDKLTQDKSFNDNSKIRMIEIMLPVFDAPQNLVEQAKLTAATNAKQ
B3: in series [1], the kcat / subunit came out at 0.0043 s⁻¹, the “decrease in kcat as compared to YPDC” value is 10,000 fold and the S0.5 is recorded as 0.72 ± 0.1 mM.

B4: E51Q: variant at the indicated position of YPDC (protein, UniProt P06169 2-563, looked up, variant E51Q)
Pyruvate decarboxylase …: SEITLGKYLFERLKQVNVNTVFGLPGDFNLSLLDKIYEVEGMRWAGNANQLNAAYAADGYARIKGMSCIITTFGVGELSALNGIAGSYAEHVGVLHVVGVPSISAQAKQLLLHHTLGNGDFTVFHRMSANISETTAMITDIATAPAEIDRCIRTTYVTQRPVYLGLPANLVDLNVPAKLLQTPIDMSLKPNDAESEKEVIDTILALVKDAKNPVILADACCSRHDVKAETKKLIDLTQFPAFVTPMGKGSIDEQHPRYGGVYVGTLSKPEVKEAVESADLILSVGALLSDFNTGSFSYSYKTKNIVEFHSDHMKIRNATFPGVQMKFVLQKLLTTIADAAKGYKPVAVPARTPANAAVPASTPLKQEWMWNQLGNFLQEGDVVIAETGTSAFGINQTTFPNNTYGISQVLWGSIGFTTGATLGAAFAAEEIDPKKRVILFIGDGSLQLTVQEISTMIRWGLKPYLFVLNNDGYTIEKLIHGPKAQYNEIQGWDHLSLLPTFGAKDYETHRVATTGEWDKLTQDKSFNDNSKIRMIEIMLPVFDAPQNLVEQAKLTAATNAKQ
Regarding B4, in series [1], the kcat / subunit amounted to 0.035 s⁻¹ and the S0.5 is on record as 14.9 ± 1.3 mM.

B5: C221E/C222A: double-mutant of YPDC with a substitution at the neighboring Cys222; permanently activated form (protein, UniProt P06169 2-563, looked up, variant C221E C222A)
Pyruvate decarboxylase …: SEITLGKYLFERLKQVNVNTVFGLPGDFNLSLLDKIYEVEGMRWAGNANELNAAYAADGYARIKGMSCIITTFGVGELSALNGIAGSYAEHVGVLHVVGVPSISAQAKQLLLHHTLGNGDFTVFHRMSANISETTAMITDIATAPAEIDRCIRTTYVTQRPVYLGLPANLVDLNVPAKLLQTPIDMSLKPNDAESEKEVIDTILALVKDAKNPVILADAEASRHDVKAETKKLIDLTQFPAFVTPMGKGSIDEQHPRYGGVYVGTLSKPEVKEAVESADLILSVGALLSDFNTGSFSYSYKTKNIVEFHSDHMKIRNATFPGVQMKFVLQKLLTTIADAAKGYKPVAVPARTPANAAVPASTPLKQEWMWNQLGNFLQEGDVVIAETGTSAFGINQTTFPNNTYGISQVLWGSIGFTTGATLGAAFAAEEIDPKKRVILFIGDGSLQLTVQEISTMIRWGLKPYLFVLNNDGYTIEKLIHGPKAQYNEIQGWDHLSLLPTFGAKDYETHRVATTGEWDKLTQDKSFNDNSKIRMIEIMLPVFDAPQNLVEQAKLTAATNAKQ
For B5, in series [2], the “reduction in activity compared to YPDC” value was 2–5 fold and the S0.5 is 1.47 ± 0.04 ^d mM. In series [1], the kcat / subunit amounted to 18.2 s⁻¹.

B6: E91D: variant at the indicated position of YPDC (protein, UniProt P06169 2-563, looked up, variant E91D)
Pyruvate decarboxylase …: SEITLGKYLFERLKQVNVNTVFGLPGDFNLSLLDKIYEVEGMRWAGNANELNAAYAADGYARIKGMSCIITTFGVGELSALNGIAGSYADHVGVLHVVGVPSISAQAKQLLLHHTLGNGDFTVFHRMSANISETTAMITDIATAPAEIDRCIRTTYVTQRPVYLGLPANLVDLNVPAKLLQTPIDMSLKPNDAESEKEVIDTILALVKDAKNPVILADACCSRHDVKAETKKLIDLTQFPAFVTPMGKGSIDEQHPRYGGVYVGTLSKPEVKEAVESADLILSVGALLSDFNTGSFSYSYKTKNIVEFHSDHMKIRNATFPGVQMKFVLQKLLTTIADAAKGYKPVAVPARTPANAAVPASTPLKQEWMWNQLGNFLQEGDVVIAETGTSAFGINQTTFPNNTYGISQVLWGSIGFTTGATLGAAFAAEEIDPKKRVILFIGDGSLQLTVQEISTMIRWGLKPYLFVLNNDGYTIEKLIHGPKAQYNEIQGWDHLSLLPTFGAKDYETHRVATTGEWDKLTQDKSFNDNSKIRMIEIMLPVFDAPQNLVEQAKLTAATNAKQ
Consider B6, for which, in series [2], the S0.5 was 1.79 ± 0.22 ^c mM. Besides, the kcat / subunit in series [1] amounted to 11 s⁻¹.
